Measurements from article doi:10.1101/2024.09.02.610668 (bioRxiv, 2024).
Changes are numbered by the printed parent chain. Names and notes keep the numbering of the source.

B1: G. gallus FANCI, wild type (natural protein, UniProt B0I564 1-1338, looked up)
chain: MAQRILQLAAEGSPERLQEALQGLTEGELGDMVTRQALRGRETAALLKGIFKGSPCSQQSGVLRRLQVYKHCVSLVESGDLHVGKVSEIIGLLMLEARQLPGHALAELATLFVEVIKRGSLSNGKSLELFSTVLTALSNSKESLAYGKGELNGEEFKKQLINTLCSSKWDPQCVIHLANMFRDIPLSGEELQFVVEKVLRMFSKLDLQEIPPLVYQLLLLSAKGSKKTVLEGIISFFNQLDKRQKEEQRVPQSADLEVATVPLDQLRHVEGTVILHIVSAINLDQDIGEELIKHLKTEQQKDPGKALCPFSVSLLLSTAVKHRLQEQIFDFLKTSITRSCKDLQILQASKFLQDLCPQQYDVTAVILEVVKNSAFGWDHVTQGLVDLGFSLMESYEPKKSFGGKAAETNLGLSKMPAQQACKLGASILLETFKVHEPIRSDILEQVLNRVLTKAASPVSHFIDLLSNIVVSAPLVLQNSSSRVTETFDNLSFLPIDTVQGLLRAVQPLLKVSMSVRDSLILVLQKAIFSRQLDARKAAVAGFLLLLRNFKILGSLTSSQCSQAIGATQVQADVHACYNSAANEAFCLEILGSLRRCLSQQADVRLMLYEGFYDVLRRNSQLASSIMETLLSQIKQYYLPQQDLLPPLKLEGCIMAQGDQIFLQEPLAHLLCCIQHCLAWYKSTVHLCKGAEDEEEEEDVGFEQNFEEMLESVTRRMIKSELEDFELDKSADFSPSSGVGVKNNIYAIQVMGICEVLIEYNFKIGNFSKNKFEDVLGLFTCYNKLSEILKEKAGKNKSTLGNRIARSFLSMGFVSTLLTALFRDNAQSHEESLAVLRSSTEFMRYAVSVALQKVQQLEEMGQTDGPDGQNPEKMFQNLCKITRVLLWRYTSIPTAVEESGKKKGKSISLLCLEGLLRIFNTMQQLYAARIPQFLQALDITDGDAEEADINVTEKAAFQIRQFQRSLVNQLSSAEDDFNSKETQLLITILSTLSKLLDPGSQQFLQFLTWTVKICKENALEDLSCCKGLLTLLFSLHVLYKSPVSLLRELAQDIHACLGDIDQDVEIESRSHFAIVNVKTAAPTVCLLVLGQADKVLEEVDWLIKRLTILGSDTSEDSTQASNQTQALEKGVILQLGTLLTVFHELVQTALPAGSCVDSLLRSLSKTYAILTSLIKHYIQACRSTSNTVPGRLEKLVKLSGSHLTPQCYSFITYVQNIHSESLSFAEEKKKKKKEDETAVVSTVMAKVLRDTKPIPNLIFAIEQYEKFLIHLSKKSKVNLMQYMKLSTSRDFRINASMLDSVLQEQNTEDAENEPDNNQSGTAEQPDENQEPQKKRRRKK
B2: G. gallus FANCI, phosphomimetic S558D, S561D, T567D (natural protein, UniProt B0I564 1-1338, looked up)
chain: B1 chain with S558D, S561D, T567D

Molecular target: G. gallus FANCD2 (G. gallus, UniProt Q68Y81 1-1439)
Sequence (Q68Y81 whole entry): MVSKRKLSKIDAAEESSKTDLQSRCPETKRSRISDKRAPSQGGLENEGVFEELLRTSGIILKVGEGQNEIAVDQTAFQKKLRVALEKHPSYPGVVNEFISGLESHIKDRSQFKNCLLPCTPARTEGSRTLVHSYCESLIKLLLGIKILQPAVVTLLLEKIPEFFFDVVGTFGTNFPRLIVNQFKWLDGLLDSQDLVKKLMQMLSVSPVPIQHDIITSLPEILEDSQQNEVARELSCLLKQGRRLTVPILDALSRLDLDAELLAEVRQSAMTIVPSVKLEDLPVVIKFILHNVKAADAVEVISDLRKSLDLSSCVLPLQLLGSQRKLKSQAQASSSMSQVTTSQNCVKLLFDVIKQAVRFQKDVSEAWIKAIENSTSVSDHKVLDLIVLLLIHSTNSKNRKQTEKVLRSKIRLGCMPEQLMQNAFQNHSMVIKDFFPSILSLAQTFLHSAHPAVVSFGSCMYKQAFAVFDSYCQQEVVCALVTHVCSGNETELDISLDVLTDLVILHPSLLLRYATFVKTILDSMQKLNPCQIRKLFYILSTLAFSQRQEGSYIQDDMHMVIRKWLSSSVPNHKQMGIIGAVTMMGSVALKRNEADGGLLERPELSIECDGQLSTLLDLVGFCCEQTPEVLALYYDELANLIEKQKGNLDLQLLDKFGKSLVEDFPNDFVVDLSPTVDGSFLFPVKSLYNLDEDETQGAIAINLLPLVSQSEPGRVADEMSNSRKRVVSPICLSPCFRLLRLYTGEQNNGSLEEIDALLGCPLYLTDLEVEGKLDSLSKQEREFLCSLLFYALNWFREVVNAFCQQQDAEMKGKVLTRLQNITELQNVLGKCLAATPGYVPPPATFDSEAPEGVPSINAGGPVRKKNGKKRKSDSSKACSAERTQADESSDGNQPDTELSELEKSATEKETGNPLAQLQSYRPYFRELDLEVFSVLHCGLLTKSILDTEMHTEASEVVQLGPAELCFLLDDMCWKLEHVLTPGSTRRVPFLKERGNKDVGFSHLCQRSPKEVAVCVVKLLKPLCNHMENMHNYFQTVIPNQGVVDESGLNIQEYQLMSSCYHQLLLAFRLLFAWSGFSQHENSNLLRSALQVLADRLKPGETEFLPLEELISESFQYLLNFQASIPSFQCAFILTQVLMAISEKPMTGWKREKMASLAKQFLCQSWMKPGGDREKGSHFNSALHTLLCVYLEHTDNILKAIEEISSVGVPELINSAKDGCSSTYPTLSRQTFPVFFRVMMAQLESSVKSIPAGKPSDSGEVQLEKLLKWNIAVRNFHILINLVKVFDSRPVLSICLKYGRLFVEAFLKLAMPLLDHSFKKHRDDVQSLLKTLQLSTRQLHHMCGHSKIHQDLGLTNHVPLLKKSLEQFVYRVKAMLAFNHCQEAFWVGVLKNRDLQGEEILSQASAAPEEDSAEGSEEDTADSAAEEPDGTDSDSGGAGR
Assay: cross-linking

| Binder | binding result |
| --- | --- |
| B1 | binds |
| B2 | binds |
